# Test results taken from PMC10881741, “Structural modifications toward improved lead-203/lead-212 peptide-based image-guided alpha-particle radiopharmaceutical therapies for neuroendocrine tumors” (European Journal of Nuclear Medicine and Molecular Imaging, 2023).
# Where two headings read alike, the source gives them in different places.
# Tests used:
# AR42J cells = assay: Cellular uptake of ^203Pb-labeled peptides; assay type: cell-based, rat; settings: 2 h post-incubation
# Procedure: PSCTOC and PSC-PEG2-TOC were labeled with ^203Pb and purified via HPLC for high molar activities as descibed in the Supplementary Material and in Li and collaborators. The HPLC-purified ^203Pb-labeled peptides (3.4 kBq) were incubated with AR42J cells in 24-well plates (pre-coated with poly-D-lysine), which were plated at a density of 2.0 × 10^5 cells 2 days prior, in the binding medium at 37 °C for up to 120 min. The cells were then washed twice and lysed, and the radioactivities of the samples were determined (n=3).
# [1] = In vivo biodistribution of ^203Pb-labeled peptides; design: species or system mice; settings: female, athymic nu/nu, mouse, 37 kBq, total radioactivity; for tissue uptake at 1 h / tissue uptake at 3 h / tissue uptake at 24 h: intravenous; for tissue uptake at 1 h / tissue to tissue ratio at 1 h: 1 h post-administration; for tissue uptake at 3 h / tissue to tissue ratio at 3 h: 3 h post-administration; for tissue uptake at 24 h / tissue to tissue ratio at 24 h: 24 h post-administration; for tissue to tissue ratio at 1 h / tissue to tissue ratio at 3 h / tissue to tissue ratio at 24 h: iv
# Procedure: AR42J cells (5.0 × 10^6 cells/animal) were implanted subcutaneously on the left shoulder of female athymic nu/nu mice. […] Extra groups of mice were co-administered 37 kBq of ^203Pb-PSC-PEG2-TOC with DL-lysine (400 mg/kg) to determine the effect of amino acid on renal uptake of the radiopharmaceutical. Mice (n=3 per time point) were euthanized at 1, 3, and 24 h post-administration, and tumors and organs/tissues of interest were excised and weighed. The radioactivities of the samples were measured using the gamma counter.
# [2] = large intestine, read-out: Large intestine
# [3] = small intestine, read-out: Small intestine
# [4] = tumor/blood, read-out: Tumor/blood ratio
# [5] = tumor/kidneys, read-out: Tumor/kidneys ratio
# [6] = tumor/liver, read-out: Tumor/liver ratio
# [7] = tumor/lung, read-out: Tumor/lung ratio
# [8] = tumor/muscle, read-out: Tumor/muscle ratio
compound,measurement,setting,value
"C[C@@H](O)[C@@H]1NC(=O)[C@H](CCCCN)NC(=O)[C@@H](Cc2c[nH]c3ccccc23)NC(=O)[C@H](Cc2ccc(O)cc2)NC(=O)[C@@H](NC(=O)[C@@H](Cc2ccccc2)NC(=O)CN2CCN(CC(=O)O)CCN(CC(N)=O)CCN(CC(=O)O)CC2)CSSC[C@@H](C(=O)N[C@H](CO)[C@@H](C)O)NC1=O [[^203Pb]Pb-PSCTOC, metal not drawn]","Cellular uptake, fold vs. [^203Pb]Pb-DOTATOC",AR42J cells,6 fold
same,Cellular uptake,AR42J cells; 37 °C,5%
same,tissue uptake at 1 h,"[1]; blood, read-out: Blood",0.53 ± 0.06 %ID/g
same,tissue uptake at 3 h,"[1]; blood, read-out: Blood",0.03 ± 0.01 %ID/g
same,tissue uptake at 24 h,"[1]; blood, read-out: Blood",0.01 %ID/g
same,tissue uptake at 1 h,"[1]; brain, read-out: Brain",0.16 ± 0.16 %ID/g
same,tissue uptake at 3 h,"[1]; brain, read-out: Brain",0.01 %ID/g
same,tissue uptake at 24 h,"[1]; brain, read-out: Brain",0.02 %ID/g
same,tissue uptake at 1 h,"[1]; heart, read-out: Heart",0.32 ± 0.02 %ID/g
same,tissue uptake at 3 h,"[1]; heart, read-out: Heart",0.07 %ID/g
same,tissue uptake at 24 h,"[1]; heart, read-out: Heart",0.05 ± 0.01 %ID/g
same,tissue uptake at 1 h,"[1]; kidneys, read-out: Kidneys",13.6 ± 0.75 %ID/g
same,tissue uptake at 3 h,"[1]; kidneys, read-out: Kidneys",8.35 ± 1.33 %ID/g
same,tissue uptake at 24 h,"[1]; kidneys, read-out: Kidneys",5.59 ± 1.3 %ID/g
same,tissue uptake at 1 h,[1]; [2],0.77 ± 0.04 %ID/g
same,tissue uptake at 3 h,[1]; [2],3.1 ± 0.12 %ID/g
same,tissue uptake at 24 h,[1]; [2],0.45 ± 0.03 %ID/g
same,tissue uptake at 1 h,"[1]; liver, read-out: Liver",0.44 ± 0.02 %ID/g
same,tissue uptake at 3 h,"[1]; liver, read-out: Liver",0.19 ± 0.03 %ID/g
same,tissue uptake at 24 h,"[1]; liver, read-out: Liver",0.14 %ID/g
same,tissue uptake at 1 h,"[1]; lung, read-out: Lung",5.06 ± 0.74 %ID/g
same,tissue uptake at 3 h,"[1]; lung, read-out: Lung",1.09 ± 0.36 %ID/g
same,tissue uptake at 24 h,"[1]; lung, read-out: Lung",1.39 ± 0.27 %ID/g
same,tissue uptake at 1 h,"[1]; muscle, read-out: Muscle",0.25 ± 0.06 %ID/g
same,tissue uptake at 3 h,"[1]; muscle, read-out: Muscle",0.05 ± 0.03 %ID/g
same,tissue uptake at 24 h,"[1]; muscle, read-out: Muscle",0.03 ± 0.01 %ID/g
same,tissue uptake at 1 h,[1]; [3],1.38 ± 0.07 %ID/g
same,tissue uptake at 3 h,[1]; [3],2.85 ± 2.25 %ID/g
same,tissue uptake at 24 h,[1]; [3],0.12 ± 0.01 %ID/g
same,tissue uptake at 1 h,"[1]; spleen, read-out: Spleen",0.7 ± 0.13 %ID/g
same,tissue uptake at 3 h,"[1]; spleen, read-out: Spleen",0.35 ± 0.12 %ID/g
same,tissue uptake at 24 h,"[1]; spleen, read-out: Spleen",0.24 ± 0.03 %ID/g
same,tissue uptake at 1 h,"[1]; tumor, read-out: Tumor",19.1 ± 3.31 %ID/g
same,tissue uptake at 3 h,"[1]; tumor, read-out: Tumor",16.2 ± 1.76 %ID/g
same,tissue uptake at 24 h,"[1]; tumor, read-out: Tumor",8.65 ± 0.7 %ID/g
same,tissue to tissue ratio at 1 h,[1]; [4],36.1
same,tissue to tissue ratio at 3 h,[1]; [4],540
same,tissue to tissue ratio at 24 h,[1]; [4],865
same,tissue to tissue ratio at 1 h,[1]; [5],1.41
same,tissue to tissue ratio at 3 h,[1]; [5],1.94
same,tissue to tissue ratio at 24 h,[1]; [5],1.55
same,tissue to tissue ratio at 1 h,[1]; [6],43.5
same,tissue to tissue ratio at 3 h,[1]; [6],85.3
same,tissue to tissue ratio at 24 h,[1]; [6],61.8
same,tissue to tissue ratio at 1 h,[1]; [7],3.78
same,tissue to tissue ratio at 3 h,[1]; [7],14.9
same,tissue to tissue ratio at 24 h,[1]; [7],6.22
same,tissue to tissue ratio at 1 h,[1]; [8],76.6
same,tissue to tissue ratio at 3 h,[1]; [8],324
same,tissue to tissue ratio at 24 h,[1]; [8],288
